According to patent US20260167677A1 (Memorial Sloan Kettering, published 2026):

T1: human ADAM10 D+C (455-650) (human, UniProt O14672 455-650)
T1 construct: range 455-650; also called human (h) ADAM10 D+C; human (h) ADAM10 D-C
T1 sequence (looked up): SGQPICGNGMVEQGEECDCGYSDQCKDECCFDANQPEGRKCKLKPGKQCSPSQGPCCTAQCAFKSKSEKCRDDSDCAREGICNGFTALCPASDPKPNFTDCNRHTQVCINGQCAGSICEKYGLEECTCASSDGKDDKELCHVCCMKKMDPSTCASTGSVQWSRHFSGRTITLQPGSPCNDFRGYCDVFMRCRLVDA

T2: human ADAM10 expressed on the cell surface (LIM1215, COLO205, HEK293, HEK293 transfected with full-length … (human, UniProt O14672 214-748))
T2 construct: whole, on cells; also called tumor-expressed ADAM10; ADAM10 expressed on HEK293 cells
T2 sequence (looked up): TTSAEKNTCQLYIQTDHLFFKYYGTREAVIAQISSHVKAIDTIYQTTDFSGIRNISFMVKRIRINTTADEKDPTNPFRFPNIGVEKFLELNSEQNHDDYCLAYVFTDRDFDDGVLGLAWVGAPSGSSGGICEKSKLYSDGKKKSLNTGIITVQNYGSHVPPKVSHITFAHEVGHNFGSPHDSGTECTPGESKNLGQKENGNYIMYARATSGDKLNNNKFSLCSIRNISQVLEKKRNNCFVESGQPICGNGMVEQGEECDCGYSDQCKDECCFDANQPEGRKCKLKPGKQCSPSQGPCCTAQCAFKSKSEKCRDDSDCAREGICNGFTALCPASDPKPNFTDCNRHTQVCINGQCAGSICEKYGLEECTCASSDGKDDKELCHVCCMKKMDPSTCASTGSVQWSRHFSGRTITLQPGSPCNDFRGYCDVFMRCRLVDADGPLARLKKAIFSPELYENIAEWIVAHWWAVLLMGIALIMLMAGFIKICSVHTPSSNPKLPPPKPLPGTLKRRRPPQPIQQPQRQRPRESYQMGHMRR

T3: ADAM10 D+C domains construct (species not stated) (Bos taurus (Bovine), UniProt Q10741 455-646)
T3 construct: also called ADAM10 D+C antigen; isolated recombinant ADAM10 D+C region
T3 sequence: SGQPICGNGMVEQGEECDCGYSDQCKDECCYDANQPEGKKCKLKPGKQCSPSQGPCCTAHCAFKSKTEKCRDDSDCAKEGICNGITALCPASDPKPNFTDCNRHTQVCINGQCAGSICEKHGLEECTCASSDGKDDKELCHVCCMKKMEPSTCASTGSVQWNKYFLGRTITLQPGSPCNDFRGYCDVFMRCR

T4: bovine ADAM10 disintegrin+cysteine-rich domain construct (D+C, residues 455-646) (bovine, UniProt Q10741 455-646)
T4 construct: range 455-646; also called ADAM10 D+C (b); bovine (b) ADAM10 D+C
T4 sequence (looked up): T3 sequence

B1: 1H5 IgG (fully human anti-ADAM10 monoclonal antibody) (antibody, V domains shown)
VH: QVQLVESGGGLVKPGGSLRLSCAASGFTFSDYYMSWIRQAPGKGLEWVSYISSSGSTIYYADSVKGRFTISRDNAKNSLYLQMNSLRAEDTAVYYCARDFYDSKIFDYWGQGTLVTVSS
VL: DIQMTQSPSSLSASVGDRVTITCRASQSISSYLNWYQQKPGKAPKLLIYAASSLQSGVPSRFSGSGSGTDFTLTISSLQPEDVGVYYCMEGLKTPFTFGPGTKLEIKR
notes: the amino acid entries 14 and 15 are used here; also called 1H5 mAb; mAb 1H5
B2: 1H5 Fab (Fab, V domains shown)
VH: B1 VH
VL: B1 VL
notes: also called 1H5 Fab fragment; Fab fragment of 1H5

Columns and labels:
[1] = molecular target: recombinant ADAM10 ECD (species not stated); test: cell-based or functional assay
[2] = molecular target: T1, human ADAM10 D+C (455-650); test: ELISA, 1H5 IgG titrated on immobilised human ADAM10 D+C, absorbance 450 nm [cont.) E]
[3] = molecular target: T2, human ADAM10 expressed on the cell …; test: cell-based ELISA, 1H5 signal normalised to mAb1427 signal
Procedure: Briefly, 5×10⁴ cells/well were immobilized on 96-well ELISA plates (Greiner bio-one) with 1% paraformaldehyde for 2 hours at 37° C. The plate was washed thrice with PBS and blocked for 2 hours at room temperature with 4% non-fat dry milk. The anti-ADAM10 mAbs were added in varying concentrations. […] The data was recorded at 450 nm.

[4] = molecular target: T3, ADAM10 D+C domains construct (species …); test: biolayer interferometry (data not shown)
[5] = molecular target: T5, recombinant ADAM10 ECD (species not stated); test: biolayer interferometry (data not shown)
T5 construct: extracellular domain; also called full recombinant ADAM10 ECD

[6] = molecular target: T4, bovine ADAM10 disintegrin+cysteine-rich …; test: ELISA, 1H5 IgG titrated on immobilised bovine ADAM10 D+C, absorbance 450 nm [cont.) E]
[7] = molecular target: T3, ADAM10 D+C domains construct (species …); test: ELISA, 1H5 Fab titrated on ADAM10 D+C, absorbance 450 nm
Procedure: To perform the competitive ELISA, wells were coated with 100 μl of ADAM10 D+C (concentration 2 μg/ml). After washes with phosphate buffer solution (PBS), the wells were blocked with 4% non-fat dry milk. […] Color was developed using a TMB substrate kit and data was recorded at 450 nm. […] The final concentration of each mAb in the mixture was the same as when added individually. The mixture was added to the wells and incubated for 1 hour.

Row | Binder | augmentation of fluorogenic substrate peptide cleavage, relative to 8C7 [1] [fold] | EC50 (read off the curve) [2] [nM] | fold better binding to tumor-expressed ADAM10 than to ADAM10 expressed on HEK293 cells [3] [fold] | Kd [4] [nM] | Kd [5] [nM] | EC50 (read off the curve) [6] [nM] | EC50 [7] [nM]
1 | B1 | ~2 | ~3 | ~14 | 3.3 | ~200 | ~3 | –
2 | B2 | – | – | – | – | – | – | 15
